Test [1] has as its target T1, FPRL1 (Homo sapiens, UniProt P25090).
T1 construct: expressed in transfected cells; host or cells: rat basophil leukemia RBL-2H3 cells, kept under G418
T1 sequence (P25090 1-351): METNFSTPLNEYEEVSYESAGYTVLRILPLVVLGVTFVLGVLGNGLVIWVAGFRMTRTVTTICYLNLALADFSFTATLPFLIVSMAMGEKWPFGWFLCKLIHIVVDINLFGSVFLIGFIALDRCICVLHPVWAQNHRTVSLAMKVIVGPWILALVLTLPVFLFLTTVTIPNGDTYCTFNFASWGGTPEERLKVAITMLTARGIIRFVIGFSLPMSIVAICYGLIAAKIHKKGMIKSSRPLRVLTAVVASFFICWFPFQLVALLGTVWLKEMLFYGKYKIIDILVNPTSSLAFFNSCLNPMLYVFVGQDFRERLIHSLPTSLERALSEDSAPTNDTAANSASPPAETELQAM
The test can be described thus: Intracellular Ca2+ measurement (fluo-3-AM) in FPRL1/RBL, vector/RBL or FPR/RBL cells. In kind it is cell-based. As for the experimental part: FPRL1/RBL, vector/RBL or FPR/RBL cells were cultured in a fluo-3-AM working solution containing 0.03% (w/v) plutonic F-127 (Molecular Probes) at 37° C. for 1 hour so that the final concentration of fluo-3-AM became 20 uM/L. After the culturing, fluo-3-AM fluorescence occurred at 488 nm with high-power Ar^+ laser in the cells, and the emission band was measured at 530 nm with photomultiplier. Fluorescence signal was detected using confocal laser scanning system (LSM 510 Meta; Carl Zeiss, Jena, Germany) equipped with Nikon E-600 Eclipse microscope. Fluorescence intensities before adding CTGF (F0) and after adding CTGF (F) were measured. Change in the intracelullar Ca^2+ concentration [Ca^2+]i was indicated by F/F0 ratio. From each cell, 50 to 120 images were scanned.
Since activation of FPRL1 increases intracellular Ca^2+ concentration, the inventors confirmed whether CTGF linker polypeptide activates FPRL1 to finally increase intracellular Ca^2+ concentration by the <Experiment method 8>, and the results are shown in FIG. 12.

The target in test [2] is T2, FPRL1 in HUVECs (Homo sapiens, UniProt P25090).
T2 construct: endogenous in cells; host or cells: HUVECs
T2 sequence (P25090 1-351): T1 sequence (P25090 1-351)
The test is described as follows: Flow cytometry binding of biotinylated linker polypeptide in HUVECs. As for the experimental part: To evaluate the degree of binding of linker polypeptide corresponding to the link region of human CTGF, linker polypeptide was labeled using a EZ-Link Micro Sulfo-NHS-LC-Biotinylation kit (Pierce Chemical Co., Rockford, Ill., USA) according to the manufacturer's instruction. The linker polypeptide was cultured at room temperature for 1 hour in PBS with 9 mM sulfo-NHS-LC-biotin (Pierce Chemical Co., Rockford, Ill., USA). During biotinylation, vector/RBL cells, FPR/RBL cells, FPRL1/RBL cells, or HUVECs were treated with trypsin, and collected, and then, treated with rabbit serum at room temperature for 30 minutes. After culturing the biotinylated linker polypeptide in the ice for 30 minutes, the cells were shortly washed with ice-cold PBS, cultured with antihuman fluoroscein-5-isothiocyanate (FITC)-conjugated streptavidin (Pierce Chemical Co.), and then, washed with ice-cold PBS, and fixed with 1% formaldehyde solution. And then, they were analyzed using FACS Caliber system (BD Biosciences, San Jose, Calif.) with CellQuest and WinMDI 2.9 software according to previously known method (He, R., Sang, H. & Ye, R. D. Serum amyloid A induces IL-8 secretion through a G protein-coupled receptor, FPRL1/LXA4R. Blood 101, 1572-1581, 2003).
It was examined whether the CTGF linker polypeptide binds to FPRL1 in HUVECs as described in the <Experiment method 7>, and the results are shown in FIG. 13. […]
On the technique in general: In flow cytometry, cells or beads pass a laser one at a time.

The test system of test [3] is HUVECs. The test can be described thus: HUVEC tube formation on Matrigel. In kind it is cell-based, human. As for the experimental part: Meanwhile, to analyze tube formation, HUVECs were inoculated on the previously polymerized Matrigel (BD Biosciences) layer together with a certain amount of linker polypeptide, rhCTGF or VEGF-A165. After culturing for 18 hours, the shape of the cells was observed by phase-contrast microscopy, and photographed with 40× magnification. By measuring the length of tubes 5 times in LPF (low-power fields) randomly selected from each well using image-Pro Plus v4.5 (Media Cybernetics, Silver Spring, Md.), the degree of tube formation was quantified.
First, 20 ng/ml of VEGF-A was administered to HUVECs, the degree of cell proliferation, cell migration, or tube formation was confirmed by the <Experiment method 9>, and the results are shown in FIGS. 22 to 24. At this time, FPRL1 antagonist WRW4 was additionally added.

Test [4] deals with CAM (chorioallantoic membrane). The test is described as follows: In vivo CAM (chorioallantoic membrane) angiogenesis analysis. As to the method: In vivo CAM analysis was conducted according to a previously known method (Lee, M.-S. et al. Angiogenic Activity of Pyruvic Acid in in Vivo and in Vitro Angiogenesis Models. Cancer Res 61, 3290-3293, 2001).
Fertilized eggs were cultured in an egg breeder set to fixed moisture at 37° C. 3 days after the culture, to take off expressed CAM from the shell, about 2 ml of egg albumin was taken out with 18-gague subcutaneous needle. After additionally culturing for 6 days, thermanox coverslips (Nunc) containing the sample was dried in the air, and applied to the CAM surface to test the activity of angiogenesis by linker polypeptide or rhCTGF. After 3 days, 1-2 ml of 10% (w/v) Intralipose was injected into chorioallantois, and observed with microscope.
And, it was confirmed by the <Experiment method 10> that in case HUVECs are treated with FPRL1 antagonist (10 ug/CAM) in vivo, angiogenesis activity of VEGF-A (25 ng/CAM) is inhibited, and the results are shown in FIG. 28.

Two substances from patent publication US8859496B2, “Pharmaceutical composition using connective-tissue growth factor” (Postech Academy-Industry Foundation, priority 2010, dated 2014) can be followed below.

No end group written: not given here.

On to “EWVCDEPKDQTVVGPALAAYRLEDTFGPDPTMIRANCLV (EWVCDEPKDQTVVGPALAAYRLEDTFGPDPTMIRANCLV-NH2; cysteine pairing not given here) [CTGF linker polypeptide]”, for which, in test [1] (FPRL1/RBL cells), the “Ca2+ concentration, concentration dependence” value is recorded as “increases dependently upon the concentration of CTGF linker polypeptide”; the “Ca2+ increasing activity compared to rhCTGF and WKYMVm” value was “more effective than rhCTGF and is similar to positive control of FPRL1 agonist WKYMVm”. For the same substance, the “Ca2+ concentration increase, cell specificity” value in test [1] (confocal microscope, FPRL1/RBL, vector/RBL or FPR/RBL cells) is listed as “increased only in FPRL1/RBL cells”. In test [2] (10 nM, 30 minutes, compared to vehicle), the “binding of linker polypeptide in HUVECs (flow cytometry shift)” value is recorded as “average value shifts right”. Besides, the “tube formation of HUVECs” value in test [3] (18 hours, compared to recombinant CTGF) is listed as “induces tube formation of HUVECs more effectively than recombinant CTGF”. Further, in test [4] (sample on coverslip on CAM, 3 days), the “angiogenesis in vivo (CAM)” value was “very strongly induces angiogenesis also in vivo in a concentration-dependent manner”.
Turning to WRWWWW (FPRL1 antagonist) [WRW4], the “effect of antagonist on intracellular Ca2+ increase by CTGF linker polypeptide” value in test [1] (WRW4 10 uM) is “the degree of intracellular Ca^2+ concentration increase by CTGF linker polypeptide decreases”. For the same substance, the “effect of antagonist on linker polypeptide binding in HUVECs” value in test [2] (WRW4 10 uM with 10 nM CTGF linker polypeptide) is listed as “the shift is not observed”. Besides, the “effect of antagonist on HUVEC tube formation induced by VEGF-A” value in test [3] (VEGF-A 20 ng/ml, WRW4 10 uM) is on record as “the tube formation is not induced”. In addition, the “effect of antagonist on HUVEC tube formation induced by CTGF linker polypeptide” value in test [3] (WRW4 10 uM) is given as “the tube formation is not be induced”. Besides, in test [4] (FPRL1 antagonist 10 ug/CAM, VEGF-A 25 ng/CAM), the “effect of antagonist on CAM angiogenesis induced by VEGF-A” value is listed as “strongly inhibits angiogenesis induced by VEGF-A”. In addition, the “effect of antagonist on CAM blood vessel formation induced by CTGF linker polypeptide” value in test [4] (WRW4 10 uM) is given as “the blood vessel formation is not induced”.
